The text below walks through data of publication PMC4051425.

Series [1] concerns the target T1, TRBP-RBD2 (second dsRBD of TRBP) (UniProt Q15633 159-227).
T1 sequence: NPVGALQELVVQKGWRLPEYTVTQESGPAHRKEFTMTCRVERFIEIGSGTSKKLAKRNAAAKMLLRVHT
The series is described as follows: EMSA. (A gel shift assay detects complexes by their altered migration in electrophoresis.)

Series [2] deals with T1, TRBP-RBD2 (second dsRBD of TRBP). As to the kind of experiment: EMSA. The source holds these as a separate data set.

Read-outs that look alike come from different tables or passages of the source.

B1: 25-bp dsRNA (dsRNA)
RNA 1: GCUUGUCGGGAGCGCCACCCUCUGC
RNA 2: GCAGAGGGUGGCGCUCCCGACAAGC
For B1, the binding result in series [1] is “binds”.

B2: 25-bp dsDNA (dsDNA)
DNA 1: GCTTGTCGGGAGCGCCACCCTCTGC
DNA 2: GCAGAGGGTGGCGCTCCCGACAAGC
For the molecule B2, in series [2], the binding result is reported as “no binding”.
